Laboratory results taken from PMC5336481 (Nature structural & molecular biology, 2017).
Blank lines part the entries; values can stand above or below the molecule they belong to.

Experiments:
[1] = biological target: full-length C. elegans TRPML1 (CUP-5), WT (C. elegans); assay: cryo-EM structure
crystal structure = biological target: the molecule itself; assay: crystal structure
[2] = biological target: T1, human TRPML1 protein (SDS-PAGE, data not shown) (human), Q9GZU1; assay: reducing SDS-PAGE; settings: remark: other sources report otherwise
T1 chain: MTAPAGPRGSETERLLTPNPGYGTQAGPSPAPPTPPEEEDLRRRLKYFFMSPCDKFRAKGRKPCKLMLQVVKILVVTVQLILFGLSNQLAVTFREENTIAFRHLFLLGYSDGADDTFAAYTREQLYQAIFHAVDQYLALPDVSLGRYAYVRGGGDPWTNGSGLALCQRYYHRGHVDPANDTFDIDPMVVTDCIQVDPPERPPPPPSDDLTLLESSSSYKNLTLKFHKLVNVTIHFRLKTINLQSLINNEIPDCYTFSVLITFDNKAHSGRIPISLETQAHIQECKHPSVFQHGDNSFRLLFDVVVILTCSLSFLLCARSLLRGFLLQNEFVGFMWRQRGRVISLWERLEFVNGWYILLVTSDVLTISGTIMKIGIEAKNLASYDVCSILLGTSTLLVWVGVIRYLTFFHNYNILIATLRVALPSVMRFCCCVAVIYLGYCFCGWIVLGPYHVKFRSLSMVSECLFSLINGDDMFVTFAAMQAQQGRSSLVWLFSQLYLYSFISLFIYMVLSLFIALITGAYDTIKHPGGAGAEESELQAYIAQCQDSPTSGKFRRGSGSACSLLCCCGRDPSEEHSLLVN

stoichiometry N [1]: 4
Molecule: full-length C. elegans TRPML1 (CUP-5), WT (natural protein)

B1: human TRPML1 I-II linker (G84-S296) (domain or fragment, UniProt Q9GZU1 84-296, looked up)
chain: GLSNQLAVTFREENTIAFRHLFLLGYSDGADDTFAAYTREQLYQAIFHAVDQYLALPDVSLGRYAYVRGGGDPWTNGSGLALCQRYYHRGHVDPANDTFDIDPMVVTDCIQVDPPERPPPPPSDDLTLLESSSSYKNLTLKFHKLVNVTIHFRLKTINLQSLINNEIPDCYTFSVLITFDNKAHSGRIPISLETQAHIQECKHPSVFQHGDNS
stoichiometry N (crystal structure): 4

stoichiometry N [2]: 4
B2: human TRPML1 protein (SDS-PAGE, data not shown), Q9GZU1 1-580 (natural protein)
chain: MTAPAGPRGSETERLLTPNPGYGTQAGPSPAPPTPPEEEDLRRRLKYFFMSPCDKFRAKGRKPCKLMLQVVKILVVTVQLILFGLSNQLAVTFREENTIAFRHLFLLGYSDGADDTFAAYTREQLYQAIFHAVDQYLALPDVSLGRYAYVRGGGDPWTNGSGLALCQRYYHRGHVDPANDTFDIDPMVVTDCIQVDPPERPPPPPSDDLTLLESSSSYKNLTLKFHKLVNVTIHFRLKTINLQSLINNEIPDCYTFSVLITFDNKAHSGRIPISLETQAHIQECKHPSVFQHGDNSFRLLFDVVVILTCSLSFLLCARSLLRGFLLQNEFVGFMWRQRGRVISLWERLEFVNGWYILLVTSDVLTISGTIMKIGIEAKNLASYDVCSILLGTSTLLVWVGVIRYLTFFHNYNILIATLRVALPSVMRFCCCVAVIYLGYCFCGWIVLGPYHVKFRSLSMVSECLFSLINGDDMFVTFAAMQAQQGRSSLVWLFSQLYLYSFISLFIYMVLSLFIALITGAYDTIKHPGGAGAEESELQAYIAQCQDSPTSGKFRRGSGSACSLLCCCGRDPSEEHSLLVN
